Changes are numbered by the printed parent chain. Names and notes keep the numbering of the source. “Also recorded” adds a separate entry of the source. Where two headings read alike, the source gives them in different places. Ends that are not written are not given here. Peptide text beside a SMILES is read from it. * marks the point of attachment. Biotin = O=C1N[C@H]2[C@H](CS[C@H]2CCCCC(=O)*)N1
B1: MYB75 DBD: fragment comprising the MYB DBD (residues M1-P114) (protein, UniProt Q9FE25 1-114, looked up, fragment)
chain: MEGSSKGLRKGAWTTEEDSLLRQCINKYGEGKWHQVPVRAGLNRCRKSCRLRWLNYLKPSIKRGKLSSDEVDLLLRLHRLLGNRWSLIAGRLPGRTANDVKNYWNTHLSKKHEP
B2: MYB75: full-length MYB75 (MYB subgroup 6), control prey for GL3 (protein)
chain: MEGSSKGLRKGAWTTEEDSLLRQCINKYGEGKWHQVPVRAGLNRCRKSCRLRWLNYLKPSIKRGKLSSDEVDLLLRLHRLLGNRWSLIAGRLPGRTANDVKNYWNTHLSKKHEPCCKIKMKKRDITPIPTTPALKNNVYKPRPRSFTVNNDCNHLNAPPKVDVNPPCLGLNINNVCDNSIIYNKDKKKDQLVNNLIDGDNMWLEKFLEESQEVDILVPEATTTEKGDTLAFDVDQLWSLFDGETVKFD
modifications: left off: NubG and FRB (from the vector pFRB), end not stated, kept
notes: full-length MYB75 (MYB subgroup 6), control prey for GL3
B3: N191A: mutated MYB29 (AAs 120-222); MIM sequence - S TS KL LAK VA ARA SS - (protein)
chain: GIDPVTHKPLAYDSNPDEQSQSGSISPKSLPPSSSKNVPEITSSDETPKYDASLSSKKRCFKRSSSTSKLLAKVAARASSMGTILGASIEGTLISSTPLSSCL
modifications: left off: NubG and FRB (from the vector pFRB), end not stated, kept
B4: A194L: mutated MYB29 (AAs 120-222); MIM sequence - S TS KL LNK VL ARA SS - (protein)
chain: B3 chain with A72N, A75L
modifications: left off: NubG and FRB (from the vector pFRB), end not stated, kept
B5: A194G: mutated MYB29 (AAs 120-222); MIM sequence - S TS KL LNK VG A RA SS - (protein)
chain: B3 chain with A72N, A75G
modifications: left off: NubG and FRB (from the vector pFRB), end not stated, kept

Experiments:
[1] = biological target: T1, MYC4 N-terminal domain (L55-N253; MYC4Nt) (Arabidopsis thaliana, UniProt O49687); test: Bio-layer interferometry, binding of MYC4Nt to immobilised biotinylated MIM peptides; conditions: for binding of MYC4Nt to immobilised peptide (in words): BLI, peptide immobilised on streptavidin biosensor, MYC4Nt dilution series
T1 construct: MYC4 N-terminal domain (L55-N253; MYC4Nt) using a C-terminal 6×His tag; made in house; host or cells: Escherichia coli BL21(DE3), pET52u plasmid
T1 sequence (O49687 55-253): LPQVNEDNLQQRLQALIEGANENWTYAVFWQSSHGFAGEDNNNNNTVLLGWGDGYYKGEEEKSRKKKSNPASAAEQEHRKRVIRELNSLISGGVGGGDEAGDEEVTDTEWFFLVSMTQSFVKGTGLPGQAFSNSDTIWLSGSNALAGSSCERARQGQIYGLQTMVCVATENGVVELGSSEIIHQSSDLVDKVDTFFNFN
Description: Single colonies of freshly transformed Escherichia coli BL21(DE3), carrying the pET52u plasmid for expressing MYC4 N-terminal domain (AA55-253; MYC4Nt) with a C-terminal 6×His tag, were inoculated in LB with ampicillin and grown overnight (37°C, 200 RPM). The next day, the culture was diluted to OD600 = 0.2 with cold (4°C) LB with ampicillin and grown at 18°C (100 RPM) in a baffled Erlenmeyer flask until OD600 = 1.0 (∼7.5 h). Protein expression was induced by addition of 0.1 mM IPTG, and the cultures grew for further 18 h at 18°C (100 RPM), before harvesting the cells by centrifugation (4000 g, 20 min), and storing the bacterial pellet at −20°C until protein extraction and purification. For extraction and purification, the bacterial pellet was resuspended in BugBuster Master Mix (Merck Millipore), 2.5 ml per 50 ml bacterial culture, containing 1× ethylenediaminetetraacetic acid-free complete protease inhibitor cocktail (Roche) and 1 mM dithiothreitol (DTT). Lysis proceeded by slow end-over-end rotation at room temperature for 30 min, and the lysate was cleared by centrifugation (20.000 g, 20 min, 4°C). The supernatant was diluted five times with His binding buffer (20 mM sodium phosphate, 500 mM NaCl, 40 mM imidazole, 1 mM DTT, pH 7.4) and filtered through a 0.2-micron filter using a syringe, before applying to a HisTrap HP 5 ml (GE Healthcare) IMAC column charged with Ni(II)Cl2. After washing thoroughly, bound protein was eluted with a linear buffer gradient to elution buffer (His binding buffer with 500 mM imidazole) over 20 column volumes, and 1.9 ml fractions collected in a 96-deepwell plate. Based on absorbance at 280 nm during elution, fractions were selected for analysis by sodium dodecyl sulphate-polyacrylamide gel electrophoresis and those fractions showing only the band of the recombinant protein at 22.7 kDa were pooled and concentrated using 3-kDa cut-off PES membrane ultrafiltration centrifugal tubes (Thermo Scientific™ Pierce). Concentrated protein was centrifuged at 20 000 g, 4°C for 10 min before being dialysed overnight to PBS pH 7.4 with 1 mM DTT. Protein concentration was estimated using the Lambert–Beer law based on absorbance at 280 nm, after blanking with the dialysis buffer (dialysate) and protein was stored in aliquots at −80°C. Aliquots of dialysate were stored at −20°C.
Biotinylated peptides were synthesized by TAG Copenhagen A/S (Copenhagen, Denmark). Lyophilized peptide was resuspended in H2O to a concentration of 400–500 μM and stored in aliquots at −80°C. […] Binding was measured with a BLItz Bio-Layer Interferometer (Pall ForteBio) using the advanced kinetics program in the BLItz Pro 1.2 software. […]

GL3 [2] = test: Split-ubiquitin assay, GL3 as bait; type: cell-based, Arabidopsis thaliana; conditions: yeast, SD-AHLW growth
Description: (§1) The rapamycin-compatible yeast strain NMY51 TOR1-1 Δfpr1 ([35]) was transformed according to DUALhunter™ kit instructions (Dualsystems biotech). Briefly, overnight 2×YPAD cultures were diluted to OD600 = 0.2, and incubated at 30°C, 150 RPM for 4–6 h in 2×YPAD, before harvesting the cells by centrifugation at 700 g for 5 min. The cells were washed with H2O, then 0.1 M LiOAc, before resuspending in 0.1 M LiOAc with 15% glycerol. The competent cells were then aliquoted and stored at −80°C until transformation. For double transformation with bait and prey plasmids, competent cells were thawed on ice, and mixed with transformation mix (240 μl 50% PEG-3350, 35 μl 1 M LiOAc and 25 μl 2 mg/ml ssDNA per transformation) and 200 ng of each plasmid, before being exposed to a 42°C heat shock in a water bath for 45 min. The cells were then chilled on ice for a few minutes, sedimented by centrifugation (3000 g, 1 min), resuspended in sterile H2O, plated on SD-LW plates and grown at 30°C for 2–3 days.
(§2) For drop tests, cells from three individual colonies of each bait/prey combination were grown overnight in liquid SD-LW media. Next day, culture densities were normalized to OD600 = 0.05, dilution series (OD600 = 0.05, OD600 = 0.005, OD600 = 0.0005 and OD600 = 0.00005) were spotted on square plates (SD-LW, SD-AHLW and SD-AHLW+Rapa) and grown for 2 days at 30°C before taking pictures.
(§3) To identify interaction sites mediating specific MYB–MYC complex formation, we selected two TFs from each family. These were MYB28 and MYB29 from MYB subgroup 12, and two of their partner bHLH TFs, MYC3 and MYC4. To define the region mediating the interactions we applied a chemically inducible dimerization split-ubiquitin system ([35]). […] This is used as an in-built positive control for correct expression and functionality of the prey fusion protein and thereby reduces the incidence of false negatives.

GL3 [3] = conditions: ref [32]; cited from earlier work
Excerpt: To identify interaction sites mediating specific MYB–MYC complex formation, we selected two TFs from each family. These were MYB28 and MYB29 from MYB subgroup 12, and two of their partner bHLH TFs, MYC3 and MYC4. To define the region mediating the interactions we applied a chemically inducible dimerization split-ubiquitin system ([35]). […] As controls, we included the interaction between GL3 and MYB75, where a fragment c ...

[4] = biological target: T2, MYC4 N-terminal domain (L55-N253) (Arabidopsis thaliana, UniProt O49687 55-253); test: BLI
T2 chain: T1 sequence (O49687 55-253)

MYC3 = test: Split-ubiquitin assay, MYC3 as bait; type: cell-based, Arabidopsis thaliana; conditions: yeast, SD-AHLW growth
Description: as §1, §2, §3

MYC4 = test: Split-ubiquitin assay, MYC4 as bait; type: cell-based, Arabidopsis thaliana; conditions: yeast, SD-AHLW growth
Description: as §1, §2, §3

Molecule | binding of MYC4Nt to immobilised peptide (in words) [1] | interaction with MYC3 (in words) (MYC3) | interaction with MYC4 (in words) (MYC4) | further results
CSCC[C@H](NC(=O)[C@H](CO)NC(=O)[C@H](CO)NC(=O)[C@H](C)NC(=O)[C@H](CCCNC(=N)N)NC(=O)[C@H](C)NC(=O)[C@H](C)NC(=O)[C@@H](NC(=O)[C@H](CCCCN)NC(=O)[C@H](CC(N)=O)NC(=O)[C@@H](NC(=O)[C@H](CC(C)C)NC(=O)[C@H](CCCCN)NC(=O)[C@H](CO)NC(=O)[C@@H](NC(=O)[C@H](CO)NC(=O)[C@H](CO)NC(=O)[C@H](CO)NC(=O)[C@H](CCCNC(=N)N)NC(=O)[C@H](CCCCN)NC(=O)[C@H](Cc1ccccc1)NC(=O)CCCC[C@@H]1SC[C@@H]2NC(=O)N[C@@H]21)[C@@H](C)O)C(C)C)C(C)C)C(=O)NCC(=O)O [L190V-MIM] (Biotin-FKRSSSTSKLVNKVAARASSMG-OH) | a strong binding signal, but at higher concentrations of MYC4Nt (>10 μM), than was necessary for the WT-MIM |  |  | affinity for MYC4Nt weaker than WT-MIM peptide ([1]; estimated, relative to WT-MIM peptide): ~10 fold
CSCC[C@H](NC(=O)[C@H](CO)NC(=O)[C@H](CO)NC(=O)[C@H](C)NC(=O)[C@H](CCCNC(=N)N)NC(=O)[C@H](C)NC(=O)[C@H](C)NC(=O)[C@@H](NC(=O)[C@H](CCCCN)NC(=O)[C@H](CC(N)=O)NC(=O)[C@H](CC(C)C)NC(=O)[C@H](CC(C)C)NC(=O)[C@H](CCCCN)NC(=O)[C@H](CO)NC(=O)[C@@H](NC(=O)[C@H](CO)NC(=O)[C@H](CO)NC(=O)[C@H](CO)NC(=O)[C@H](CCCNC(=N)N)NC(=O)[C@H](CCCCN)NC(=O)[C@H](Cc1ccccc1)NC(=O)CCCC[C@@H]1SC[C@@H]2NC(=O)N[C@@H]21)[C@@H](C)O)C(C)C)C(=O)NCC(=O)O [WT-MIM] (Biotin-FKRSSSTSKLLNKVAARASSMG-OH) | binding of MYC4Nt was observed even at sub micro molar concentrations; also recorded: stronger binding of the WT-MIM peptide compared to that of the L190V-MIM peptide |  |  | 
L190A-MIM: N-terminally biotinylated 22-residue peptide comprising the L190A MIM sequence of MYB29 (F180-G201) (Biotin-FKRSSSTSKLANKVAARASSMG) | Fit cannot converge; also recorded: an extremely weak response was seen only at high (>100 μM) concentrations of MYC4Nt; also recorded: the fit did not converge; also recorded: unable to detect binding |  |  | 
B1 |  |  |  | interaction with GL3 (in words) (GL3 [2]): results in growth on SD-AHLW plates; interaction with GL3 (in words) (GL3 [3]): sufficient for this interaction
Biotin-FKRSSSTSKLVNKVAARASSMG [L190V-MIM peptide (F180-G201 of MYB29, L190V)] |  |  |  | Kd [4]: 33 µM
B2 |  |  |  | interaction with GL3 (in words) (GL3 [2]): results in growth on SD-AHLW plates
B3 |  | abolished the interaction | abolished the interaction | 
B4 |  | abolished the interaction with both MYC3 and MYC4 | abolished the interaction with both MYC3 and MYC4 | 
B5 |  | did not abolish the interaction | did not abolish the interaction | 

Reference: publication PMC6765112, “Specificity of MYB interactions relies on motifs in ordered and disordered contexts” (Nucleic Acids Research, 2019)
